According to US8933039:
Numbering of substitutions follows the chain as printed.

What was measured:
Ac-ratGLP-2(1-33) = target: T1, Ac-ratGLP-2(1-33)
T1 chain: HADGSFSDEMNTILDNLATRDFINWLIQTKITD

[Aib2]hGLP-2(1-33) = target: T2, [Aib2]hGLP-2(1-33)
T2 chain: T1 chain with A2X, T19A

[Ala1,Gly2]hGLP-2(1-33) = target: T3, [Ala1,Gly2]hGLP-2(1-33)
T3 chain: T1 chain with H1A, A2G, T19A

[Ala4]ratGLP-2(1-33) = target: T4, [Ala4]ratGLP-2(1-33)
T4 chain: T1 chain with G4A

[Ala5, Ala7]hGLP-2(1-33) = target: T5, [Ala5, Ala7]hGLP-2(1-33)
T5 chain: T1 chain with S5A, S7A, T19A

[1] = target: T6, [Arg-2,Arg-1]ratGLP-2(2-33)
T6 chain: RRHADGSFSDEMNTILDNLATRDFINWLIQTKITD

[Arg-l]ratGLP-2(-1-33) = target: T7, [Arg-l]ratGLP-2(-1-33)
T7 chain: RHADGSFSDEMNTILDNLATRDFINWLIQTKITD

[Arg30]hGLP-2(1-33) = target: T8, [Arg30]hGLP-2(1-33)
T8 chain: T1 chain with T19A, K30R

[Asn2]hGLP-2(1-33) = target: T9, [Asn2]hGLP-2(1-33)
T9 chain: T1 chain with A2N, T19A

[Asp1]hGLP-2(1-33) = target: T10, [Asp1]hGLP-2(1-33)
T10 chain: T1 chain with H1D, T19A

[Asp2]hGLP-2(1-33) = target: T11, [Asp2]hGLP-2(1-33)
T11 chain: T1 chain with A2D, T19A

[D-Ala2]hGLP-2(1-33) = target: T12, [D-Ala2]hGLP-2(1-33)
T12 chain: T1 chain with T19A

[DAla2]ratGLP-2(1-33) = target: T13, [DAla2]ratGLP-2(1-33)
T13 chain: T1 chain

[Gln2]hGLP-2(1-33) = target: T14, [Gln2]hGLP-2(1-33)
T14 chain: T1 chain with A2Q, T19A

[Glu2]hGLP-2(1-33) = target: T15, [Glu2]hGLP-2(1-33)
T15 chain: T1 chain with A2E, T19A

[Glu33]hGLP-2(1-33) = target: T16, [Glu33]hGLP-2(1-33)
T16 chain: T1 chain with T19A, D33E

[Glu3]ratGLP-2(1-33) = target: T17, [Glu3]ratGLP-2(1-33)
T17 chain: T1 chain with D3E

[2] = target: T18, [Gly2, Arg34]hGLP-2(1-34)
T18 chain: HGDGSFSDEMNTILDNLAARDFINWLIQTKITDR

[3] = target: T19, [Gly2, Tyr34]hGLP-2(1-34)
T19 chain: T18 chain with R34Y

[Gly2,Ala24]hGLP-2(1-33) = target: T20, [Gly2,Ala24]hGLP-2(1-33)
T20 chain: T1 chain with A2G, T19A, N24A

[Gly2,Ala3]hGLP-2(1-33) = target: T21, [Gly2,Ala3]hGLP-2(1-33)
T21 chain: T1 chain with A2G, D3A, T19A

[Gly2,Ala4]hGLP-2(1-33) = target: T22, [Gly2,Ala4]hGLP-2(1-33)
T22 chain: T1 chain with A2G, G4A, T19A

[Gly2,Ala5]hGLP-2(1-33) = target: T23, [Gly2,Ala5]hGLP-2(1-33)
T23 chain: T1 chain with A2G, S5A, T19A

[Gly2]hGLP-2(1-33) = target: T24, [Gly2]hGLP-2(1-33)
T24 chain: T1 chain with A2G, T19A

[Gly2]ratGLP-2(1-33) = target: T25, [Gly2]ratGLP-2(1-33)
T25 chain: T1 chain with A2G

[His2]hGLP-2(1-33) = target: T26, [His2]hGLP-2(1-33)
T26 chain: T1 chain with A2H, T19A

[Ile2]hGLP-2(1-33) = target: T27, [Ile2]hGLP-2(1-33)
T27 chain: T1 chain with A2I, T19A

[Lys2]hGLP-2(1-33) = target: T28, [Lys2]hGLP-2(1-33)
T28 chain: T1 chain with A2K, T19A

[Met2]hGLP-2(1-33) = target: T29, [Met2]hGLP-2(1-33)
T29 chain: T1 chain with A2M, T19A

[Nval2]hGLP-2(1-33) = target: T30, [Nval2]hGLP-2(1-33)
T30 chain: T1 chain with A2X, T19A

[Pen2]hGLP-2(1-33) = target: T31, [Pen2]hGLP-2(1-33)
T31 chain: T1 chain with A2X, T19A

[PhGly2]hGLP-2(1-33) = target: T32, [PhGly2]hGLP-2(1-33)
T32 chain: T1 chain with A2X, T19A

[Phe25]hGLP-2(1-33) = target: T33, [Phe25]hGLP-2(1-33)
T33 chain: T1 chain with T19A, W25F

[Phe2]hGLP-2(1-33) = target: T34, [Phe2]hGLP-2(1-33)
T34 chain: T1 chain with A2F, T19A

[Pro1]hGLP-2(1-33) = target: T35, [Pro1]hGLP-2(1-33)
T35 chain: T1 chain with H1P, T19A

[Pro2]hGLP-2(1-33) = target: T36, [Pro2]hGLP-2(1-33)
T36 chain: T1 chain with A2P, T19A

[Pro3]hGLP-2(1-33) = target: T37, [Pro3]hGLP-2(1-33)
T37 chain: T1 chain with D3P, T19A

[Ser2,Gln3]hGLP-2(1-33) = target: T38, [Ser2,Gln3]hGLP-2(1-33)
T38 chain: T1 chain with A2S, D3Q, T19A

[Ser2]hGLP-2(1-33) = target: T39, [Ser2]hGLP-2(1-33)
T39 chain: T1 chain with A2S, T19A

[Thr2]hGLP-2(1-33) = target: T40, [Thr2]hGLP-2(1-33)
T40 chain: T1 chain with A2T, T19A

[Tyr1, Gly2]hGLP-2(1-33) = target: T41, [Tyr1, Gly2]hGLP-2(1-33)
T41 chain: T1 chain with H1Y, A2G, T19A

[Tyr1]ratGLP-2(1-33) = target: T42, [Tyr1]ratGLP-2(1-33)
T42 chain: T1 chain with H1Y

[Tyr25]hGLP-2(1-33) = target: T43, [Tyr25]hGLP-2(1-33)
T43 chain: T1 chain with T19A, W25Y

[Tyr2]hGLP-2(1-33) = target: T44, [Tyr2]hGLP-2(1-33)
T44 chain: T1 chain with A2Y, T19A

[Val2]GLP-2(1-33) = target: T45, [Val2]GLP-2(1-33)
T45 chain: T1 chain with A2V

[Val2]hGLP-2(1-33) = target: T46, [Val2]hGLP-2(1-33)
T46 chain: T1 chain with A2V, T19A

[aAbu2]hGLP-2(1-33) = target: T47, [aAbu2]hGLP-2(1-33)
T47 chain: T1 chain with A2X, T19A

[bAla2]hGLP-2(1-33) = target: T48, [bAla2]hGLP-2(1-33)
T48 chain: T1 chain with A2X, T19A

[desNH2Tyr1]hGLP-2(1-33) = target: T49, [desNH2Tyr1]hGLP-2(1-33)
T49 chain: T1 chain with H1Y, T19A

[tBuGly2]hGLP-2 = target: T50, [tBuGly2]hGLP-2
T50 chain: T1 chain with A2X, T19A

hGLP-2(1-33) = target: T51, hGLP-2(1-33)
T51 chain: T1 chain with T19A

ratGLP-2(1-33) = target: T52, ratGLP-2(1-33)
T52 chain: T1 chain

B1: human placental DPP-IV (Calbiochem, La Jolla, Calif., cat. #317624) (protein)
chain: MKTPWKVLLGLLGAAALVTIITVPVVLLNKGTDDATADSRKTYTLTDYLKNTYRLKLYSLRWISDHEYLYKQENNILVFNAEYGNSSVFLENSTFDEFGHSINDYSISPDGQFILLEYNYVKQWRHSYTASYDIYDLNKRQLITEERIPNNTQWVTWSPVGHKLAYVWNNDIYVKIEPNLPSYRITWTGKEDIIYNGITDWVYEEEVFSAYSALWWSPNGTFLAYAQFNDTEVPLIEYSFYSDESLQYPKTVRVPYPKAGAVNPTVKFFVVNTDSLSSVTNATSIQITAPASMLIGDHYLCDVTWATQERISLQWLRRIQNYSVMDICDYDESSGRWNCLVARQHIEMSTTGWVGRFRPSEPHFTLDGNSFYKIISNEEGYRHICYFQIDKKDCTFITKGTWEVIGIEALTSDYLYYISNEYKGMPGGRNLYKIQLSDYTKVTCLSCELNPERCQYYSVSFSKEAKYYQLRCSGPGLPLYTLHSSVNDKGLRVLEDNSALDKMLQNVQMPSKKLDFIILNETKFWYQMILPPHFDKSKKYPLLLDVYAGPCSQKADTVFRLNWATYLASTENIIVASFDGRGSGYQGDKIMHAINRRLGTFEVEDQIEAARQFSKMGFVDNKRIAIWGWSYGGYVTSMVLGSGSGVFKCGIAVAPVSRWEYYDSVYTERYMGLPTPEDNLDHYRNSTVMSRAENFKQVEYLLIHGTADDNVHFQQSAQISKALVDVGVDFQAMWYTDEDHGIASSTAHQHIYTHMSHFIKQCFSLP
- % Cleaved by DPP-IV (Ac-ratGLP-2(1-33)): 0%
- % Cleaved by DPP-IV ([Aib2]hGLP-2(1-33)): 0%
- % Cleaved by DPP-IV ([Ala1,Gly2]hGLP-2(1-33)): 0%
- % Cleaved by DPP-IV ([Ala4]ratGLP-2(1-33)): 72%
- % Cleaved by DPP-IV ([Ala5, Ala7]hGLP-2(1-33)): 77%
- % Cleaved by DPP-IV [1]: 0%
- % Cleaved by DPP-IV ([Arg-l]ratGLP-2(-1-33)): 0%
- % Cleaved by DPP-IV ([Arg30]hGLP-2(1-33)): 59%
- % Cleaved by DPP-IV ([Asn2]hGLP-2(1-33)): 0%
- % Cleaved by DPP-IV ([Asp1]hGLP-2(1-33)): 0%
- % Cleaved by DPP-IV ([Asp2]hGLP-2(1-33)): 0%
- % Cleaved by DPP-IV ([D-Ala2]hGLP-2(1-33)): 0%
- % Cleaved by DPP-IV ([DAla2]ratGLP-2(1-33)): 0%
- extent of cleavage after 24 hour incubation (RP-HPLC) ([DAla2]ratGLP-2(1-33)): No cleavage products were detected
- % Cleaved by DPP-IV ([Gln2]hGLP-2(1-33)): 0%
- % Cleaved by DPP-IV ([Glu2]hGLP-2(1-33)): 0%
- % Cleaved by DPP-IV ([Glu33]hGLP-2(1-33)): 55%
- % Cleaved by DPP-IV ([Glu3]ratGLP-2(1-33)): 50%
- % Cleaved by DPP-IV [2]: 0%
- % Cleaved by DPP-IV [3]: 0%
- % Cleaved by DPP-IV ([Gly2,Ala24]hGLP-2(1-33)): 0%
- % Cleaved by DPP-IV ([Gly2,Ala3]hGLP-2(1-33)): 0%
- % Cleaved by DPP-IV ([Gly2,Ala4]hGLP-2(1-33)): 0%
- % Cleaved by DPP-IV ([Gly2,Ala5]hGLP-2(1-33)): 0%
- % Cleaved by DPP-IV ([Gly2]hGLP-2(1-33)): 0%
- % Cleaved by DPP-IV ([Gly2]ratGLP-2(1-33)): 0%
- extent of cleavage after 24 hour incubation (RP-HPLC) ([Gly2]ratGLP-2(1-33)): No cleavage products were detected
- % Cleaved by DPP-IV ([His2]hGLP-2(1-33)): 0%
- % Cleaved by DPP-IV ([Ile2]hGLP-2(1-33)): 0%
- % Cleaved by DPP-IV ([Lys2]hGLP-2(1-33)): 0%
- % Cleaved by DPP-IV ([Met2]hGLP-2(1-33)): 0%
- % Cleaved by DPP-IV ([Nval2]hGLP-2(1-33)): 0%
- % Cleaved by DPP-IV ([Pen2]hGLP-2(1-33)): 20%
- % Cleaved by DPP-IV ([PhGly2]hGLP-2(1-33)): 0%
- % Cleaved by DPP-IV ([Phe25]hGLP-2(1-33)): 54%
- % Cleaved by DPP-IV ([Phe2]hGLP-2(1-33)): 0%
- % Cleaved by DPP-IV ([Pro1]hGLP-2(1-33)): 0%
- % Cleaved by DPP-IV ([Pro2]hGLP-2(1-33)): 16%
- % Cleaved by DPP-IV ([Pro3]hGLP-2(1-33)): 0%
- % Cleaved by DPP-IV ([Ser2,Gln3]hGLP-2(1-33)): 0%
- % Cleaved by DPP-IV ([Ser2]hGLP-2(1-33)): 0%
- % Cleaved by DPP-IV ([Thr2]hGLP-2(1-33)): 0%
- % Cleaved by DPP-IV ([Tyr1, Gly2]hGLP-2(1-33)): 0%
- % Cleaved by DPP-IV ([Tyr1]ratGLP-2(1-33)): 100%
- % Cleaved by DPP-IV ([Tyr25]hGLP-2(1-33)): 48%
- % Cleaved by DPP-IV ([Tyr2]hGLP-2(1-33)): 0%
- % Cleaved by DPP-IV ([Val2]GLP-2(1-33)): 0%
- % Cleaved by DPP-IV ([Val2]hGLP-2(1-33)): 13%
- % Cleaved by DPP-IV ([aAbu2]hGLP-2(1-33)): 49%
- % Cleaved by DPP-IV ([bAla2]hGLP-2(1-33)): 0%
- % Cleaved by DPP-IV ([desNH2Tyr1]hGLP-2(1-33)): 15%
- % Cleaved by DPP-IV ([tBuGly2]hGLP-2): 0%
- % Cleaved by DPP-IV (hGLP-2(1-33)): 60%
- % Cleaved by DPP-IV (ratGLP-2(1-33)): 58%
- extent of cleavage after 24 hour incubation (RP-HPLC) (ratGLP-2(1-33)): 22% of the control peptide, rGLP-2, was cleaved by DPP-IV
